B1: CPEB3 Ribozyme (parent)
chain: UAACAGGGGGCCACAGCAGAAGCGUUCACGUCGCAGCCCCUGUCAGAUUCUGGUGAAUCUGCGAAUUCUGCUGUAUAUCUC

Variants of: B1
Experiment: self-cleavage, relative activity (ratio to wild type); higher = more cleavage; in vitro, sequencing
Summary of the method: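 For each CPEB3 ribozyme variant, relative activity is its cleaved/total read fraction divided by the unmutated ribozyme's. Barcoded error-prone PCR libraries were transcribed by T7 RNA polymerase (5 hours, 37°C) and held in DNase I for 15 min before an EDTA stop, with cleavage occurring throughout. Template-switching reverse transcription and Illumina sequencing were used to read the RNAs. A 5-read minimum applied, and results are the mean of three batches.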
Variant U60A C79U has a self-cleavage of 0.69.
Work on U60A C81G yielded a self-cleavage of 0.93.
In the case of U60A C81U, the self-cleavage is reported as 0.76.
U60A G61C showed a self-cleavage of 0.22.
With U60A G61U the self-cleavage was 0.38.
U60A G63A showed a self-cleavage of 0.61.
U60A G63C showed a self-cleavage of 0.75.
For U60A G63U, the self-cleavage was 0.53.
For U60A G70A, the self-cleavage was 0.52.
Variant U60A G73A has a self-cleavage of 1.16.
With U60A U66A the self-cleavage was 0.18.
Variant U60A U66C has a self-cleavage of 0.34.
Variant U60A U67A has a self-cleavage of 0.42.
In the case of U60A U67C, the self-cleavage is reported as 0.37.
With U60A U67G the self-cleavage was 0.79.
Variant U60A U69A has a self-cleavage of 0.33.
With U60A U69C the self-cleavage was 0.34.
For U60A U69G, the self-cleavage was 0.25.
In the case of U60A U72A, the self-cleavage is reported as 0.54.
U60A U72C showed a self-cleavage of 0.64.
U60A U72G gave a self-cleavage of 0.61.
With U60A U74A the self-cleavage was 0.75.
In the case of U60A U74C, the self-cleavage is reported as 1.04.
Work on U60A U74G yielded a self-cleavage of 0.91.
U60A U76A gave a self-cleavage of 0.61.
Variant U60A U76C has a self-cleavage of 0.56.
For U60A U78A, the self-cleavage was 0.72.
Work on U60A U78C yielded a self-cleavage of 0.44.
U60A U78G gave a self-cleavage of 0.38.
In the case of U60A U80A, the self-cleavage is reported as 0.59.
With U60A U80C the self-cleavage was 0.63.
In the case of U60A U80G, the self-cleavage is reported as 0.84.
In the case of U60C, the self-cleavage is reported as 0.54.
For U60C A64C, the self-cleavage was 0.61.
Variant U60C A64G has a self-cleavage of 0.36.
U60C A64U showed a self-cleavage of 0.31.
With U60C A65C the self-cleavage was 0.17.
Variant U60C A65G has a self-cleavage of 0.28.
Work on U60C A65U yielded a self-cleavage of 0.27.
For U60C A75C, the self-cleavage was 0.72.
For U60C A75G, the self-cleavage was 0.37.
For U60C A75U, the self-cleavage was 0.57.
U60C A77G gave a self-cleavage of 0.51.
For U60C A77U, the self-cleavage was 0.55.
Variant U60C C62A has a self-cleavage of 0.19.
Variant U60C C62U has a self-cleavage of 0.33.
U60C C68A gave a self-cleavage of 0.32.
In the case of U60C C68G, the self-cleavage is reported as 0.31.
For U60C C71A, the self-cleavage was 0.25.
With U60C C71U the self-cleavage was 0.3.
Variant U60C C79A has a self-cleavage of 0.93.
With U60C C79G the self-cleavage was 0.81.
U60C C79U gave a self-cleavage of 0.72.
Work on U60C C81A yielded a self-cleavage of 0.37.
U60C C81U showed a self-cleavage of 0.74.
Work on U60C G61C yielded a self-cleavage of 0.29.
U60C G61U showed a self-cleavage of 0.26.
U60C G63A showed a self-cleavage of 0.57.
Variant U60C G63C has a self-cleavage of 0.54.
U60C G63U gave a self-cleavage of 0.58.
Work on U60C G70A yielded a self-cleavage of 0.48.
Variant U60C G70C has a self-cleavage of 0.27.
U60C G70U gave a self-cleavage of 0.44.
Work on U60C G73A yielded a self-cleavage of 1.09.
U60C G73C gave a self-cleavage of 0.9.
In the case of U60C U66A, the self-cleavage is reported as 0.33.
With U60C U66C the self-cleavage was 0.29.
Variant U60C U66G has a self-cleavage of 0.15.
With U60C U67A the self-cleavage was 0.3.
U60C U67C showed a self-cleavage of 0.35.
For U60C U67G, the self-cleavage was 0.2.
In the case of U60C U69A, the self-cleavage is reported as 0.35.
U60C U69C gave a self-cleavage of 0.37.
With U60C U69G the self-cleavage was 0.39.
With U60C U72A the self-cleavage was 0.37.
With U60C U72C the self-cleavage was 0.53.
With U60C U72G the self-cleavage was 0.39.
For U60C U74A, the self-cleavage was 0.96.
U60C U74C gave a self-cleavage of 0.79.
U60C U74G gave a self-cleavage of 0.66.
Work on U60C U76A yielded a self-cleavage of 0.58.
In the case of U60C U76C, the self-cleavage is reported as 0.51.
For U60C U76G, the self-cleavage was 0.51.
Variant U60C U78A has a self-cleavage of 0.55.
U60C U78C showed a self-cleavage of 0.45.
U60C U80A showed a self-cleavage of 0.61.
In the case of U60C U80C, the self-cleavage is reported as 0.57.
Work on U60C U80G yielded a self-cleavage of 0.44.
Work on U60G yielded a self-cleavage of 0.48.
In the case of U60G A64G, the self-cleavage is reported as 0.42.
In the case of U60G A64U, the self-cleavage is reported as 0.21.
With U60G A65G the self-cleavage was 0.24.
Variant U60G A77G has a self-cleavage of 0.47.
For U60G A77U, the self-cleavage was 0.38.
Work on U60G C62A yielded a self-cleavage of 0.34.
For U60G C71U, the self-cleavage was 0.2.
Variant U60G G70A has a self-cleavage of 0.21.
U60G U66C gave a self-cleavage of 0.15.
U60G U66G showed a self-cleavage of 0.24.
U60G U67A showed a self-cleavage of 0.26.
U60G U67C showed a self-cleavage of 0.13.
U60G U69A gave a self-cleavage of 0.39.
U60G U69C showed a self-cleavage of 0.23.
For U60G U72A, the self-cleavage was 0.22.
For U60G U72C, the self-cleavage was 0.32.
In the case of U60G U72G, the self-cleavage is reported as 0.28.
With U60G U74A the self-cleavage was 0.82.
U60G U74C gave a self-cleavage of 0.88.
In the case of U60G U78A, the self-cleavage is reported as 0.36.
Variant U60G U78C has a self-cleavage of 0.17.
With U60G U80C the self-cleavage was 0.63.
For G61A, the self-cleavage was 0.75.
G61A A65G showed a self-cleavage of 0.39.
With G61A A77G the self-cleavage was 0.8.
G61A A77U showed a self-cleavage of 0.98.
Work on G61A C62U yielded a self-cleavage of 0.17.
For G61A C79A, the self-cleavage was 1.16.
G61A G63A showed a self-cleavage of 0.84.
G61A G70U gave a self-cleavage of 0.12.
Work on G61A G73A yielded a self-cleavage of 1.21.
In the case of G61A U66C, the self-cleavage is reported as 0.39.
In the case of G61A U67A, the self-cleavage is reported as 0.43.
In the case of G61A U67C, the self-cleavage is reported as 0.36.
Work on G61A U67G yielded a self-cleavage of 0.25.
In the case of G61A U69A, the self-cleavage is reported as 0.4.
In the case of G61A U69C, the self-cleavage is reported as 0.53.
Variant G61A U72A has a self-cleavage of 0.3.
Variant G61A U72C has a self-cleavage of 0.73.
G61A U74C gave a self-cleavage of 1.12.
For G61A U76C, the self-cleavage was 0.88.
In the case of G61A U78C, the self-cleavage is reported as 0.62.
Work on G61A U80A yielded a self-cleavage of 0.91.
For G61A U80C, the self-cleavage was 0.9.
Work on G61A U80G yielded a self-cleavage of 1.
G61C gave a self-cleavage of 0.34.
For G61C A64G, the self-cleavage was 0.19.
In the case of G61C A64U, the self-cleavage is reported as 0.32.
For G61C A65C, the self-cleavage was 0.22.
Variant G61C A65G has a self-cleavage of 0.39.
In the case of G61C C62U, the self-cleavage is reported as 0.22.
G61C G63U gave a self-cleavage of 0.35.
For G61C U66A, the self-cleavage was 0.23.
G61C U66C gave a self-cleavage of 0.54.
With G61C U72C the self-cleavage was 0.34.
G61C U74A gave a self-cleavage of 0.88.
With G61C U74C the self-cleavage was 0.23.
G61C U78C gave a self-cleavage of 0.33.
Variant G61C U80C has a self-cleavage of 0.5.
For G61U, the self-cleavage was 0.6.
G61U A64U showed a self-cleavage of 0.23.
Work on G61U G70A yielded a self-cleavage of 0.31.
With G61U U67C the self-cleavage was 0.21.
For G61U U67G, the self-cleavage was 0.23.
For G61U U69A, the self-cleavage was 0.3.
In the case of G61U U72C, the self-cleavage is reported as 0.72.
With G61U U72G the self-cleavage was 0.53.
For G61U U74C, the self-cleavage was 1.19.
For G61U U76A, the self-cleavage was 0.39.
G61U U80C showed a self-cleavage of 0.65.
C62A showed a self-cleavage of 0.31.
With C62A A64G the self-cleavage was 0.25.
In the case of C62A A65G, the self-cleavage is reported as 0.36.
In the case of C62A A65U, the self-cleavage is reported as 0.24.
C62A A75G gave a self-cleavage of 0.12.
Work on C62A A77G yielded a self-cleavage of 0.24.
C62A G63A showed a self-cleavage of 0.25.
With C62A G73A the self-cleavage was 0.24.

Source: the RNAGym collection of RNA variant scans (doi:10.1093/nar/gkz1192)
